Test results as given in patent US20230210946A1, “TREATMENT OF CANCER” (Immutep S.A.S., priority 2020, published 2023).

Legend:
Type in all cases: in vivo, human
[1] = tested on: HER2 negative hormone receptor-positive metastatic breast cancer; experiment: AIPAC Phase IIb study: progression-free survival (PFS); conditions: investigator read; for PFS absolute gain / PFS Hazard Ratio: vs paclitaxel + placebo
Description: (§1) A Phase IIb clinical study was carried out to investigate the safety and efficacy of the active immunotherapy IMP321 in combination (adjunctive) with paclitaxel chemotherapy in patients with HER2 negative hormone receptor-positive metastatic breast cancer.
(§2) A multicentre, placebo-controlled, double-blind, 1:1 randomised Phase IIb study in female HER2 negative hormone receptor-positive metastatic breast cancer patients was conducted. The study comprised two stages: • stage 1 which was an open-label, safety run-in stage consisting of cohorts 1 and 2 to confirm the recommended Phase II dose (RPTD) of IMP321 in combination with paclitaxel; and • stage 2 which was a placebo-controlled, double-blind randomisation stage, paclitaxel+IMP321 at the RPTD compared to paclitaxel+placebo.
(§3) Paclitaxel+IMP321 at the RPTD of 30 mg (114 patients):
(§4) The chemo-immunotherapy phase consisted of 6 cycles of 4 weeks. Patients received weekly paclitaxel at Days 1, 8 and 15 with adjunctive treatment of study agent (IMP321) on Days 2 and 16 of each 4-week cycle. After completion of the 6-cycle chemo-immunotherapy phase, responding or stable patients received study agent (IMP321) every 4 weeks during the maintenance phase for an additional period of up to 12 injections.
(§5) Active Comparator: Paclitaxel+Placebo (112 patients):
(§6) The chemo-immunotherapy phase consisted of 6 cycles of 4 weeks. Patients received weekly paclitaxel at Days 1, 8 and 15 with adjunctive treatment of study agent (placebo) on Days 2 and 16 of each 4-week cycle. After completion of the 6-cycle chemo-immunotherapy phase, responding or stable patients received study agent (placebo) every 4 weeks during the maintenance phase for an additional period of up to 12 injections.
Primary Outcome Measures: • 1. Stage 1 to determine the recommended phase two dose (RPTD) for the randomised phase • 2. Assessment of Progression-Free Survival (PFS)

[2] = tested on: HER2 negative hormone receptor-positive metastatic breast cancer; experiment: AIPAC Phase IIb study: overall survival (OS)
Description: as §1, §2, §3, §4, §5, §6
(§7) Secondary Outcome Measures: • 1. […] Assessment of the overall survival (OS) • 3. […] Evaluation of the time to next treatment • 6. Evaluation of objective response rate (ORR) • 7. Evaluation of stable disease

[3] = tested on: HER2 negative hormone receptor-positive metastatic breast cancer; experiment: AIPAC Phase IIb study: best overall response acc. to RECIST 1.1 by BICR (ORR, DCR); conditions: entire patient population
Description: as §1, §2, §3, §4, §5
The chemo-immunotherapy phase consisted of 6 cycles of 4 weeks. […]

[4] = AIPAC: quality of life (QoL); conditions: at week 25
Description: as §7

[5] = Pharmacokinetics of s.c. IMP321 in metastatic renal cell cancer patients
[6] = Safety of s.c. IMP321 doses

B1: IMP321: recombinant soluble human LAG-3Ig fusion protein, 160-kDa dimer: extracellular domain of hLAG-3 fused to the human IgG1 Fc (protein)
chain: LQPGAEVPVVWAQEGAPAQLPCSPTIPLQDLSLLRRAGVTWQHQPDSGPPAAAPGHPLAPGPHPAAPSSWGPRPRRYTVLSVGPGGLRSGRLPLQPRVQLDERGRQRGDFSLWLRPARRADAGEYRAAVHLRDRALSCRLRLRLGQASMTASPPGSLRASDWVILNCSFSRPDRPASVHWFRNRGQGRVPVRESPHHHLAESFLFLPQVSPMDSGPWGCILTYRDGFNVSIMYNLTVLGLEPPTPLTVYAGAGSRVGLPCRLPAGVGTRSFLTAKWTPPGGGPDLLVTGDNGDFTLRLEDVSQAQAGTYTCHIHLQEQQLNATVTLAIITVTPKSFGSPGSLGKLLCEVTPVSGQERFVWSSLDTPSQRSFSGPWLEAQEAQLLSQPWQCQLYQGERLLGAAVYFTELSSPG
modifications: left off: small tags and cut ends; a dimerising Fc or GST
notes: recombinant soluble human LAG-3Ig fusion protein, 160-kDa dimer: extracellular domain of hLAG-3 fused to the human IgG1 Fc
PFS median ([1]; Luminal B type): 7.2 months
PFS absolute gain ([1]; Luminal B type): +1.7 months
Median PFS ([1]; age < 65 years): 7.2 months
PFS absolute gain ([1]; age < 65 years): +1.7 months
PFS median ([1]; low (<0.25 × 10^9/L) monocytes at baseline): 7.5 months
PFS absolute gain ([1]; low monocytes at baseline): +2.3 months
Median PFS ([1]; with prior CDK4/6 therapy): 5.6 months
PFS Hazard Ratio ([1]; with prior CDK4/6 therapy): HR 1.02
PFS absolute gain ([1]; with prior CDK4/6 therapy): −1.1 months
Median PFS ([1]; without prior taxane therapy): 7.2 months
PFS Hazard Ratio ([1]; without prior taxane therapy): HR 0.88
PFS absolute gain ([1]; without prior taxane therapy): +1.7 months
Median OS ([2]; Luminal B type, investigator read): 16.3 months
OS absolute gain ([2]; Luminal B type, investigator read, vs paclitaxel + placebo): +3.8 months
Median OS ([2]; age < 65 years, investigator read): 21.9 months
OS absolute gain ([2]; age < 65 years, investigator read, vs paclitaxel + placebo): +7.1 months
OS Hazard Ratio [95% CI] ([2]; entire patient population, investigator read, vs paclitaxel + placebo): 0.83
gain in median OS ([2]; entire patient population, vs paclitaxel + placebo): 2.7 months
Median OS ([2]; low (<0.25 × 10^9/L) monocytes at baseline, investigator read): 22.4 months
OS absolute gain ([2]; low monocytes at baseline, investigator read, vs paclitaxel + placebo): +9.4 months
Median OS ([2]; with prior CDK4/6 therapy, investigator read): 20.2 months
OS Hazard Ratio ([2]; with prior CDK4/6 therapy, investigator read, vs paclitaxel + placebo): HR 0.84
Median OS ([2]; without prior taxane therapy, investigator read): 21.4 months
OS Hazard Ratio ([2]; without prior taxane therapy, investigator read, vs paclitaxel + placebo): HR 0.69
Progressive disease [3]: fewer patients with immediate progression
deterioration in Quality of Life (QoL) [4]: not observed
systemic exposure ([5]; doses of 6-30 mg per s.c. injection, metastatic renal cell cancer patients): acceptable systemic exposure
blood concentration of IMP321 ([5]; for at least 24 hours after s.c. injection, doses of more than 6 mg): > 1 ng/mL
safety ([6]; doses of 6-30 mg per s.c. injection): safe
dose limiting toxicity ([6]; to date): No dose limiting toxicity has been observed
